Assay results as given in patent US20120213763A1 (COUNCIL OF SCIENTIFIC AND INDUSTRIAL RESEARCH, published 2012).
Positions count from the first letter of the chain named. Several values for one entry are separate records, joined by “and”; a condition that tells them apart may be missing. Identical values can stand only once.

Columns and labels:
[1] = target: PEG Variants of SEQ ID NO 24 (PEGylated Cysteine variants of fibrin domain fusion form of SK)
[2] = target: T1, PEGylated SK C-383 Cys (SEQ ID NO 492), Cys at C + 1 position of SK 1-383, G3
T1 chain: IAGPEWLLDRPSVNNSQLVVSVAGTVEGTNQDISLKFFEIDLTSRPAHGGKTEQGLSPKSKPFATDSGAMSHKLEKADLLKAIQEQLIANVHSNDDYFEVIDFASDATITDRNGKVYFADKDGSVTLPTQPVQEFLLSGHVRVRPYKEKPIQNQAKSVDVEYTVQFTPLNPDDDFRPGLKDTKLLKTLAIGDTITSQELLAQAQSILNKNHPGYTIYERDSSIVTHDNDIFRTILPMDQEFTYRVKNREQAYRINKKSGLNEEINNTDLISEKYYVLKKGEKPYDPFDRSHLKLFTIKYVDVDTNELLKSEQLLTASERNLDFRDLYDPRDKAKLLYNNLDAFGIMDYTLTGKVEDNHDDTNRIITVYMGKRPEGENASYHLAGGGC

[3] = target: T2, PEGylated SK L260C (SEQ ID NO 50)
T2 chain: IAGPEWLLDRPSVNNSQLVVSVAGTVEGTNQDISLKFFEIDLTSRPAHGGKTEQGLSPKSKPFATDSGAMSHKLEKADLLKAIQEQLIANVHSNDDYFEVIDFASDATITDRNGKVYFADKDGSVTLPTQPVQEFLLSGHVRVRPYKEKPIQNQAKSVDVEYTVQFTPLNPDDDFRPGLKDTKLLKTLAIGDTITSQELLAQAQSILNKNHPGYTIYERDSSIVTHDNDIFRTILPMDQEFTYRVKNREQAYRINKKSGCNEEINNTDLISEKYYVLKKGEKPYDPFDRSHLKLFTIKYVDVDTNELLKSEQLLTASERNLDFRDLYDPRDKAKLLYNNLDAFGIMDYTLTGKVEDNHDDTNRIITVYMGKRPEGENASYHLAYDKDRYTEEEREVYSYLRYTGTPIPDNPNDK

[4] = target: T3, PEGylated SK K121C (SEQ ID NO 35)
T3 chain: T2 chain with K121C, C260L

[5] = target: T4, native streptokinase nSK (1-414) ATCC 12449 (SEQ ID NO 1)
T4 chain: T2 chain with C260L

[6] = target: T5, PEGylated SK N255C (SEQ ID NO 46)
T5 chain: T2 chain with N255C, C260L

[7] = target: T6, PEGylated SK D102C (SEQ ID NO 32)
T6 chain: T2 chain with D102C, C260L

B1: human plasminogen (HPG) (protein)
chain: KVYLSECKTGNGKNYRGTMSKTKNGITCQKWSSTSPHRPRFSPATHPSEGLEENYCRNPDNDPQGPWCYTTDPEKRYDYCDILECEEECMHCSGENYDGKISKTMSGLECQAWDSQSPHAHGYIPSKFPNKNLKKNYCRNPDRELRPWCFTTDPNKRWELCDIPRCTTPPPSSGPTYQCLKGTGENYRGNVAVTVSGHTCQHWSAQTPHTHNRTPENFPCKNLDENYCRNPDGKRAPWCHTTNSQVRWEYCKIPSCDSSPVSTEQLAPTAPPELTPVVQDCYHGDGQSYRGTSSTTTTGKKCQSWSSMTPHRHQKTPENYPNAGLTMNYCRNPDADKGPWCFTTDPSVRWEYCNLKKCSGTEASVVAPPPVVLLPDVETPSEEDCMFGNGKGYRGKRATTVTGTPCQDWAAQEPHRHSIFTPETNPRAGLEKNYCRNPDGDVGGPWCYTTNPRKLYDYCDVPQCAAPSFDCGKPQVEPKKCPGRVVGGCVAHPHSWPWQVSLRTRFGMHFCGGTLISPEWVLTAAHCLEKSPRPSSYKVILGAHQEVNLEPHVQEIEVSRLFLEPTRKDIALLKLSSPAVITDKVIPACLPSPNYVVADRTECFITGWGETQGTFGAGLLKEAQLPVIENKVCNRYEFLNGRVQSTELCAGHLAGGTDSCQGDSGGPLVCFEKDKYILQGVTSWGLGCARPNKPGVYVRVSRFVTWIEGVMRNN
Km [1]: 0.48 µM
Km [2]: 0.4 µM
Km [3]: 0.6 µM
Km [4]: 0.4 µM
Km [5]: 0.4 µM and 0.45 µM
Km [6]: 0.4 µM
Km [7]: 0.5 µM
